Where two headings read alike, the source gives them in different places.
B1: Rap1B (residues 1-167), GMP-PNP bound (domain or fragment, human, UniProt P61224 1-167, looked up)
chain: MREYKLVVLGSGGVGKSALTVQFVQGIFVEKYDPTIEDSYRKQVEVDAQQCMLEILDTAGTEQFTAMRDLYMKNGQGFALVYSITAQSTFNDLQDLREQILRVKDTDDVPMILVGNKCDLEDERVVGKEQGQNLARQWNNCAFLESSAKSKINVNEIFYDLVRQINR
B3: Rasip1 RA domain (residues 134-285) (domain or fragment, human, UniProt Q5U651 134-285, looked up)
chain: EPPLATRATAPPGVLKIFGAGLASGANYKSVLATARSTARELVAEALERYGLAGSPGGGPGESSCVDAFALCDALGRPAAAGVGSGEWRAEHLRVLGDSERPLLVQELWRARPGWARRFELRGREEARRLEQEAFGAADSEGTGAPSWRPQK
B4: Radil RA domain (residues 51-193) (domain or fragment, human, UniProt Q96JH8 51-193, looked up)
chain: DPAELSTQLSAPGVLKVFGDSVCTGTHYKSVLATGTSSARELVKEALERYALDPRQAGQYVLCDVVGQAGDAGQRWQARCFRVFGDSEKPLLIQELWKPREGLSRRFELRKRSDVEELAAKEVDTITAGINAQARRLQRSRAK

Assays:
[1] = molecular target: B3; experiment: ITC
[2] = molecular target: B4; experiment: ITC
crystal structure = molecular target: the molecule itself; experiment: crystal structure
[3] = molecular target: B1; experiment: crystal structure
NMR linewidths = molecular target: the molecule itself; experiment: NMR linewidths
[4] = molecular target: B1; experiment: ITC
[5] = molecular target: B1; experiment: ITC; remark: listed apart in the source
[6] = molecular target: HRas (residues 1-189), GMP-PNP bound (human, UniProt P01112 1-189); experiment: ITC
Chain of HRas (residues 1-189), GMP-PNP bound (P01112 whole entry, the tested form may be a part): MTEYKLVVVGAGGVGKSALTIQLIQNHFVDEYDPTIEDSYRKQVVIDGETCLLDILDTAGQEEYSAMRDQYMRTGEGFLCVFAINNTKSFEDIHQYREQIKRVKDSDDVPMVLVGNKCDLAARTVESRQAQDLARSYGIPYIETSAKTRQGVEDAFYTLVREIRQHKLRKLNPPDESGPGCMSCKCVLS

In the case of B1, the dH [1] is reported as -3.4 kcal/mol, the “stoichiometry N” value [1] is reported as 1.22 and the dH [2] is reported as -6.5 kcal/mol. The “stoichiometry N” value [2] was 1.04.

B2: trypsin-treated Rasip1 RA domain (domain or fragment, human, UniProt Q5U651 141-285, looked up)
chain: ATAPPGVLKIFGAGLASGANYKSVLATARSTARELVAEALERYGLAGSPGGGPGESSCVDAFALCDALGRPAAAGVGSGEWRAEHLRVLGDSERPLLVQELWRARPGWARRFELRGREEARRLEQEAFGAADSEGTGAPSWRPQK
B2: binds (crystal structure); binds [3].

For B3, the binding result (NMR linewidths) was “binds”, the Kd [4] was 770 ± 90 nM and the Kd [5] was 900 nM. It also gave a Kd [6] of 2200 nM.

Work on B4 yielded a Kd [5] of 1200 nM and a Kd [6] of 3900 nM.
